Test results as given in publication PMC5397183.
Read-outs that look alike come from different tables or passages of the source.

T1: FadR WT (native, crystal) (Bacillus halodurans, UniProt Q9K8A4 1-195)
T1 sequence: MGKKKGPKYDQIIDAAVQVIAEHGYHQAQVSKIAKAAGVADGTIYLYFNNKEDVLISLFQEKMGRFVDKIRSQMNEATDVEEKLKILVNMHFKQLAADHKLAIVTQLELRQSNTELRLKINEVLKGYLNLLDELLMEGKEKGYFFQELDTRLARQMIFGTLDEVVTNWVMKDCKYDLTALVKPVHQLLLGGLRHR

B1: 21OH fadR promoter (dsDNA)
DNA 1: GATGAATGAATACTCATTCAT
DNA 2: CATGAATGAGTATTCATTCAT

Experiments:
[1] = biological target: Bacillus halodurans FadR (native) (Bacillus halodurans); assay: crystal structure
[2] = biological target: Bacillus halodurans FadR (native) (Bacillus halodurans); assay: crystal structure; remark: listed apart in the source
[3] = biological target: T1, FadR WT (native, crystal); assay: X-ray crystallography

Row | Molecule | stoichiometry N [1] | stoichiometry N [2] | binding result [3]
1 | Bacillus halodurans FadR (native) (natural protein) | 2 | 2 | –
2 | B1 | – | – | binds
